Reference: patent publication US20090053241A1 (Eli Lilly, published 2009)
One block for each binder: values may come before it.

Tests used:
mPDGFRβ/Fc [1] = molecular target: T1, mPDGFRβ/Fc (mouse, UniProt P05622 32-530, limits assumed); experiment: ELISA, panel 'BINDING TO mPDGFRβ'
T1 construct: The methods say 'mPDGFRβ' for ELISA plates and the BIAcore chip; also called murine PDGFRβ; mouse PDGFRβ; not shown: Fc part; detected with a goat anti-human Fc antibody
T1 sequence (looked up): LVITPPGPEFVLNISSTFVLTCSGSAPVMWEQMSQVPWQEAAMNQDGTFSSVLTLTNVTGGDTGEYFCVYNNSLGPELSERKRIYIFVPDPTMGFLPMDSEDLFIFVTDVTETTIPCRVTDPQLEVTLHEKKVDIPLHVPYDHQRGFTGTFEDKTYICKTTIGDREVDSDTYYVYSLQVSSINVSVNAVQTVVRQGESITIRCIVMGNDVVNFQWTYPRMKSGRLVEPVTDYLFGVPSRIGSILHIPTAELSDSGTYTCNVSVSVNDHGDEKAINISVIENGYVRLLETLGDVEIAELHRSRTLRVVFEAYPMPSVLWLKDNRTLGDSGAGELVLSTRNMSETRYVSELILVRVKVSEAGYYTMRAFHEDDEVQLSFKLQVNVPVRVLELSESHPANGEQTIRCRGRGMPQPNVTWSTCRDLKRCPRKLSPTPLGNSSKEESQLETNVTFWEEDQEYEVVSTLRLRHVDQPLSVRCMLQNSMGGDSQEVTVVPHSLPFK

mPDGFRβ/Fc [2] = molecular target: T1, mPDGFRβ/Fc; experiment: blocking ELISA: antibody mixed with mPDGFRβ/Fc, PDGF-BB-coated plates (FIG. 1B)
Description: (§1) Plate-bound antibodies were detected with a goat anti-human-κ antibody-HRP. […] IMC-1121 is an antibody directed against human VEGFR2. Data represent the mean±SD of triplicate samples.
(§2) Quantitative receptor binding and blocking assays. […] The plates were then incubated at RT for an additional 1 h with a goat anti-human-κ antibody-horse radish peroxidase (HRP) conjugate (Jackson ImmunoResearch, West Grove, Pa.). The plates were washed and developed as previously described (Lu, D. et al., 2002; Zhu, Z. et al., 1998). […] After washing 3 times with PBST, the plates were incubated with a goat anti-human Fc antibody-HRP conjugate (Jackson ImmunoResearch) for 1 h, and developed as described (Lu, D. et al., 2002; Zhu, Z. et al., 1998; Loizos, N. et al., 2005).

mPDGFRβ/Fc [3] = molecular target: T1, mPDGFRβ/Fc; experiment: SPR (BIAcore), mPDGFRβ immobilized
Description: Antibody affinity determination. […] Sensorgrams were obtained at each concentration and were evaluated using the program, BIA Evaluation 2.0. The affinity constant, Kd, was calculated from the ratio of dissociation rate (koff)/association rate (kₒₙ) (Lu, D. et al., 2002; Zhu, Z. et al., 1998; Loizos, N. et al., 2005).

mPDGFRβ/Fc [4] = molecular target: T1, mPDGFRβ/Fc; experiment: direct binding ELISA on mPDGFRβ/Fc-coated plates (printed as IC50; FIG. 1A)
Description: as §1, §2

[5] = molecular target: T2, human PDGFRβ (soluble recombinant protein) (human, UniProt P09619 33-530, limits assumed); experiment: ELISA, panel 'BINDING TO hPDGFRβ'
T2 construct: the construct is not described; also called hPDGFRβ

mPDGFRβ/Fc [6] = molecular target: T1, mPDGFRβ/Fc; experiment: blocking ELISA, panel 'BLOCKING PDGF-BB BINDING TO mPDGFRβ'; blocked ligand PDGF-BB
mPDGFRβ/Fc [7] = molecular target: T1, mPDGFRβ/Fc; experiment: blocking ELISA: Fab mixed with mPDGFRβ/Fc, PDGF-BB-coated plates (FIG. 1B)
Description: as §1, §2

mPDGFRβ/Fc [8] = molecular target: T1, mPDGFRβ/Fc; experiment: ELISA on mPDGFRβ/Fc-coated plate (1 µg/ml), detection with goat anti-human-κ antibody-HRP
Description: as §1, §2

mPDGFRβ/Fc [9] = molecular target: T1, mPDGFRβ/Fc; experiment: blocking of PDGF-BB binding to mPDGFRβ (FIG. 6)
h5β [10] = molecular target: T3, h5β (human, UniProt P09619 33-530, limits assumed); experiment: ELISA (OD450), panel '2C5 BINDING TO PDGFRβ/α CHIMERAS'; axis 'CO…ON (nM)', titrated species not stated
T3 construct: domain: domains 1-5 (read from the label); read as human PDGFRβ with all five domains

[11] = molecular target: T2, human PDGFRβ (soluble recombinant …); experiment: blocking of PDGF-BB binding to hPDGFRβ (FIG. 6)
[12] = molecular target: human PDGFRβ, cell-surface-expressed receptor on human tumor cell lines (human, UniProt P09619 33-1106); experiment: cell-based or functional assay
[13] = molecular target: mouse PDGFRβ on cells (NIH/3T3, D122, 4T1, B16) (mouse, UniProt P05622 32-1098); experiment: cell-based or functional assay
[14] = molecular target: T4, β1-2 (shorter version of PDGFRβ, D1D2); experiment: ELISA (OD450), panel '2C5 BINDING TO hPDGFRβ DELETIONS'; axis 'CO…ON (nM)', titrated species not stated
T4 construct: domain: D1D2

[15] = molecular target: T5, β1-3 (shorter version of PDGFRβ, D1D2D3); experiment: as above
T5 construct: domain: D1D2D3

h5β [16] = molecular target: T3, h5β; experiment: as above

T2 sequence (P09619 33-530 limits assumed): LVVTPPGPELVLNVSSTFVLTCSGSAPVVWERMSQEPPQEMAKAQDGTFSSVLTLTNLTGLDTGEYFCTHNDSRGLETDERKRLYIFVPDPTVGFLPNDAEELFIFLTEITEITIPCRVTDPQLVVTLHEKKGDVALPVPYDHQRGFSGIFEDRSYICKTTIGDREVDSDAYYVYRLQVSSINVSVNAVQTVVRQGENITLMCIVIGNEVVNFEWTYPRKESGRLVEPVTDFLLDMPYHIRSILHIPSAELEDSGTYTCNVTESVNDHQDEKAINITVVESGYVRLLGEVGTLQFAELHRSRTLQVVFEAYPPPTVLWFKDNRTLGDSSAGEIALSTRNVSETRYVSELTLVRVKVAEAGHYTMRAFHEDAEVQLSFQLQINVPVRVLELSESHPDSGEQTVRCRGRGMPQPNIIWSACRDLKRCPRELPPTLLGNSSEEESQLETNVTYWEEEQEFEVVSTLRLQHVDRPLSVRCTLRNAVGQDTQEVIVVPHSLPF
T3 sequence (P09619 33-530 limits assumed): as above
human PDGFRβ, cell-surface-expressed receptor on human tumor cell lines, sequence (P09619 33-1106): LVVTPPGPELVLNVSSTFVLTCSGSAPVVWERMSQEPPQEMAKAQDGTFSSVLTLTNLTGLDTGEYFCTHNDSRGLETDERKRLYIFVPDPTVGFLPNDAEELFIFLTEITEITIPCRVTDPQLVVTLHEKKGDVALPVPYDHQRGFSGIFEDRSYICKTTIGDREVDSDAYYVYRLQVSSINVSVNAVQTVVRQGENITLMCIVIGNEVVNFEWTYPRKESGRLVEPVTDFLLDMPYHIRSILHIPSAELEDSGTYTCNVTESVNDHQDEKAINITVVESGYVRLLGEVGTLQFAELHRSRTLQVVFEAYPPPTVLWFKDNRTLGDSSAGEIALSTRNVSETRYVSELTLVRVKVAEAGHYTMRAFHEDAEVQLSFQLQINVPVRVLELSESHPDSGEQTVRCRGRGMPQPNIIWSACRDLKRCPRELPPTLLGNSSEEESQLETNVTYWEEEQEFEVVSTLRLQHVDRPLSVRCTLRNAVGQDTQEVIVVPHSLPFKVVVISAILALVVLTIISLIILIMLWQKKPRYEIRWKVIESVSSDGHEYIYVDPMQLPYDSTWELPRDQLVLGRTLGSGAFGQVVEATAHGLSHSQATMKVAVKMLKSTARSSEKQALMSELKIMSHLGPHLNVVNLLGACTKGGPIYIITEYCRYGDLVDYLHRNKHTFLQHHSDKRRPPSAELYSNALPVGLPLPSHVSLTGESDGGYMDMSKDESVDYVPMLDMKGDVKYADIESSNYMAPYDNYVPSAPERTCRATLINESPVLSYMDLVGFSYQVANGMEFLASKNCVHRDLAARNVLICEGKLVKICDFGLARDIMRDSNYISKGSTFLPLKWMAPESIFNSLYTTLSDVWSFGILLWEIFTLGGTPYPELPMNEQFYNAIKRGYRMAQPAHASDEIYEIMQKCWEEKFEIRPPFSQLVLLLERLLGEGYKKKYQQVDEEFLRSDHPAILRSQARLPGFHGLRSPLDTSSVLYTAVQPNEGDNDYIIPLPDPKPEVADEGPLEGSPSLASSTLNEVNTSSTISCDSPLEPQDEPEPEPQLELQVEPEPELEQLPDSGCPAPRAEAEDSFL

binding result (mPDGFRβ/Fc [8]): no binding (tested: 10 nM)
B3: 1121 IgG (antibody, V domains shown)
VH: EVQLVQSGGGLVKPGGSLRLSCAASGFTFSSYSMNWVRQAPGKGLEWVSSISSSSSYIYYADSVKGRFTISRDNAKNSLYLQMNSLRAEDTAVYYCARVTDAFDIWGQGTMVTVSS
VL: DIQMTQSPSSVSASIGDRVTITCRASQGIDNWLGWYQQKPGKAPKLLIYDASNLDTGVPSRFSGSGSGTYFTLTISSLQAEDFAVYFCQQAKAFPPTFGGGTKVDIK
notes: The sheet prints '1121 IgG'; also called IMC-1121; antibody directed against human VEGFR2

EC50 (read off the curve) (mPDGFRβ/Fc [1]): ~0.1 nM
IC50 (mPDGFRβ/Fc [9]): 0.35 nM
EC50 (read off the curve) (h5β [10]): ~0.05 nM
EC50 (read off the curve) [5]: ~0.1 nM
IC50 [11]: 0.55 nM
PDGFRβ phosphorylation in human Caki-1 tumor cells, IC50 [12]: < 1.8 µg/mL
PDGFRβ phosphorylation in mouse NIH/3T3 and D122 cell lines, IC50 [13]: < 1.8 µg/mL
EC50 (read off the curve) [14]: ~0.1 nM
EC50 (read off the curve) [15]: ~0.07 nM
EC50 (read off the curve) (h5β [16]): ~0.06 nM
B4: 2C5 (human anti-PDGFRβ antibody) (antibody, V domains shown)
VH: QVQLVQSGAEVKKPGSSVKVSCKASGGTFSSYAISWVRQAPGQGLEWMGRIIPILGIANYAQKFQGRVTITADKSTSTAYMELSSLRSEDTAVYYCARDMGSRNYYYFYWGQGTLVTVSS
VL: EIVLTQSPATLSLSPGERATLSCRASQSVGRYLAWYQQKPGQAPRLLIYGASNRATGIPARFSGSGSGTDFTLTISSLEPEDFAVYYCQQRSNWPLTFGGGTKVEIKR
notes: also called 2C5 antibody; anti-PDGFRβ antibody 2C5

Further lines, the binder ahead of its results:

B1: 1B3 IgG (full-length human anti-mouse PDGFRβ antibody) (antibody, V domains shown)
VH: QVQLQESGGGLVKPGGSLRLSCAASGFTFSSYSMNWVRQAPGKGLEWVSSISSSSSYIYYADSVKGRFTISRDNSKNTLYLQMNSLRAEDTAVYYCAKGGRPLLVFDFWGQGTLVTVS
VL: EIVMTQSPGTLSLSPGERATLSCRASQSVSSSYLAWYQQKPGQAPRLLIYDASKRATGIPARFSGSGSGTDFTLTISTLESEDSAVYYCQQRGYWPPITFGQGTRLEIKR
notes: also called 1B3 antibody; anti-mPDGFRβ antibody 1B3
EC50 (read off the curve) (mPDGFRβ/Fc [1]): ~0.07 nM
IC50 (mPDGFRβ/Fc [2]): 1.2 nM
Kd (mPDGFRβ/Fc [3]): 0.09 nM
fold increase in affinity over its Fab form (mPDGFRβ/Fc [3]): ~57 times
EC50 (mPDGFRβ/Fc [4]): 0.34 nM
binding result [5]: no binding (tested: about 1e-8 M)
IC50 (mPDGFRβ/Fc [6]): 0.37 nM

B2: 1B3 Fab (Fab, V domains shown)
VH: B1 VH
VL: B1 VL
notes: also called 1B3 Fab fragment; clone 1B3
Kd (mPDGFRβ/Fc [3]): 5.1 nM
EC50 (mPDGFRβ/Fc [4]): 1.3 nM
IC50 (mPDGFRβ/Fc [7]): 4.1 nM
